Experimental data: patent US20260022179A1 (CHINA MEDICAL UNIVERSITY, published 2026)

Tests used:
[1] = target: T1, full-length human EphA10 expressed on NIH 3T3 cells (human, UniProt Q5JZY3 34-1008); experiment: FACS on transfected NIH 3T3 cells
T1 construct: whole, on cells; also called full-length human EphA 10-expressing NIH 3T3 cells
T1 sequence (looked up): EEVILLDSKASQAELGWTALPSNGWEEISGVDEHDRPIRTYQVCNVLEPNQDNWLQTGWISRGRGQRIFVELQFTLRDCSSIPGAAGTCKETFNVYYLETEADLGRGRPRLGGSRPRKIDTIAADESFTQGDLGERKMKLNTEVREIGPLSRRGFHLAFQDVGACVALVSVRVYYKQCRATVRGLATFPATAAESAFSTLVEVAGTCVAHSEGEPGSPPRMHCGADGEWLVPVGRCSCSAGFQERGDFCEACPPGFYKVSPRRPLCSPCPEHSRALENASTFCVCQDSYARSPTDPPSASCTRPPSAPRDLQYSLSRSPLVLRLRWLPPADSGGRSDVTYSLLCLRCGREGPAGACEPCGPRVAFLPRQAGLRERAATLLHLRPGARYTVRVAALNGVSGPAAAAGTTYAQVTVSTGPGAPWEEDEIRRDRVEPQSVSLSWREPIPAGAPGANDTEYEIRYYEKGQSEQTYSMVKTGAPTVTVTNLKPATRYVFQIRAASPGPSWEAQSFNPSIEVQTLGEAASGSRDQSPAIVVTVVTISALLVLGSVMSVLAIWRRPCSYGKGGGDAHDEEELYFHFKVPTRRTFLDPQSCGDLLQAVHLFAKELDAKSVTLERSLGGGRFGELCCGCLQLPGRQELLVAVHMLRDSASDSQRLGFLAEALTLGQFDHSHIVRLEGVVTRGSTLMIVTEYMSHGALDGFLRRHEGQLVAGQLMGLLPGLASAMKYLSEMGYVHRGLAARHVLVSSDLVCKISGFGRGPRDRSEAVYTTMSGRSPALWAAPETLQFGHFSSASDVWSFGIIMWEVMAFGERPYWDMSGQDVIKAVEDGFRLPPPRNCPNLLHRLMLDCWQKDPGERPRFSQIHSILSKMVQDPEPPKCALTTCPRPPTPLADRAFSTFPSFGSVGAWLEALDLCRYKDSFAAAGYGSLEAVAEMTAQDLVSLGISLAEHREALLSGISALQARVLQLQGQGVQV
Excerpt: (§1) A human B cell-derived scFv phage display library (Creative BioLabs, USA) was used to pan against the recombinant human EphA10 extracellular domain protein (Glu34-Ala565), transcript variant 3, fused with DDK/His tag at C-terminal (Creative Biomart, USA, Catalog no. EPHA10-369H). Positive clones were screened using ELISA. A unique CMU #5 were identified by DNA sequencing. The binding specificity of the unique clones was confirmed by FACS using full-length human EphA 10-expressing NIH 3T3 cells.

[2] = target: T2, recombinant human EphA10 extracellular domain protein (Glu34-Ala565), transcript variant 3, fused with … (human, UniProt Q5JZY3 34-565); experiment: ELISA screen of phage display clones after panning on the recombinant protein
T2 construct: range 34-565; Commercial protein used for panning and the screening ELISA; also called EPHA10-369H (Creative Biomart); not shown: C-terminal DDK/His tag
T2 sequence (looked up): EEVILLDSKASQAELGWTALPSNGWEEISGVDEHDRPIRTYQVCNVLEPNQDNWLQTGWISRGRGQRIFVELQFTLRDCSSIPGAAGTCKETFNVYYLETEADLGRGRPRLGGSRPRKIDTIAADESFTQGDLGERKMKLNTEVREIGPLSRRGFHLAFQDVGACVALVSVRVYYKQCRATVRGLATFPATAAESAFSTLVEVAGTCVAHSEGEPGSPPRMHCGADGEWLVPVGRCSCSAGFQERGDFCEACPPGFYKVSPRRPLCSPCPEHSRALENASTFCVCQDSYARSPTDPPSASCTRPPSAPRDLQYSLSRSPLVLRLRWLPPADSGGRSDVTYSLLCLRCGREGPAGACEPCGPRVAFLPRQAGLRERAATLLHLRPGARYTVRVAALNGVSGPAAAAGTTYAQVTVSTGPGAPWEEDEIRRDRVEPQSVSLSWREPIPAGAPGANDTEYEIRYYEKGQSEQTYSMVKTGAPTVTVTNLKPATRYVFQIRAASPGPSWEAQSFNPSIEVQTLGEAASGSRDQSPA
Excerpt: as §1

B1: CMU #5 scFv (clone from the human B cell-derived scFv phage display library) (scFv)
scFv: EVQLVQSGGGVVQPGGSLRLSCAASGFTFDDYAMHWVRQAPGKGLEWVAVISYDGSNKYYADSVKGRFTISRDNSKNTLYLQMNSLRAEDTAVYYCARDGLPAFDIWGKGTLVTVSSGGGGSGGGGSGGGGSEIVLTQSPATLSVSPGERAILSCRASQSVRSNLAWYQQKPGQPPRLVIYDASSRATGIPARFSGSGSGTDFTLTISSLEPEDFAAYYCQQYGSSQLTFGGGTKLEIKR
notes: This is the clone as screened after panning
Q: Does B1 bind [1]?
A: binds

Q: Does B1 bind [2]?
A: binds
